Here are results for 2 molecules from PMC4773420 (Nature Communications, 2016).

In one series the target is 6His-PABPC1(1-190) (human, UniProt P11940 1-190). Kind of series: EMSA; 100 nM RNA; complete shift at 7 pmol protein per 1 pmol RNA; EMSA: 100 nM 5'-fluorescein RNA, native PAGE; EMSA buffer not in the material (deadenylation assays: 20 mM HEPES-KOH pH 8.0, 100 mM KCl, 0.5 mM DTT, 0.1% Igepal). Background: A gel shift assay detects complexes by their altered migration in electrophoresis.

A further series has as its target 6His-PABPC1(FL) (human, UniProt P11940 1-636). Kind of series: EMSA; 100 nM RNA; complete shift at 7 pmol protein per 1 pmol RNA; multiple PABPC1 molecules bound; EMSA: 100 nM 5'-fluorescein RNA, native PAGE; EMSA buffer not in the material (deadenylation assays: 20 mM HEPES-KOH pH 8.0, 100 mM KCl, 0.5 mM DTT, 0.1% Igepal).
Another series addresses T1, 6His-PABPC1(1–190) (human, UniProt P11940 1-190).
T1 construct: PABPC1, human, RRM domains 1 and 2, amino acids 1-190; also called 6His-tagged PABPC1 RRM domains 1 and 2; first two RRMs of PABPC1; source: E. coli BL21-CodonPlus; co-expressed, in lysate (pull-down); purified (HisTrap FF crude, Superdex 75)
Kind of series: AUC; analytical ultracentrifugation of BTG2(APRO) (GST removed) and 6His-PABPC1(1–190), both purified to homogeneity; no RNA (Supplementary Fig. 2). The following applies: both partners purified.

T1 sequence (P11940 1-190): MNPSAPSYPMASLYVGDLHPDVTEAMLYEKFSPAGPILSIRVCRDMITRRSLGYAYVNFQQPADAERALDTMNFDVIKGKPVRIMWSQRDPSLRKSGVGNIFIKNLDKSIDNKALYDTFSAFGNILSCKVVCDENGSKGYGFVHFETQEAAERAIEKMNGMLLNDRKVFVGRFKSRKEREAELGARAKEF
Chain of 6His-PABPC1(1-190) (P11940 1-190): as above
Chain of 6His-PABPC1(FL) (P11940 whole entry): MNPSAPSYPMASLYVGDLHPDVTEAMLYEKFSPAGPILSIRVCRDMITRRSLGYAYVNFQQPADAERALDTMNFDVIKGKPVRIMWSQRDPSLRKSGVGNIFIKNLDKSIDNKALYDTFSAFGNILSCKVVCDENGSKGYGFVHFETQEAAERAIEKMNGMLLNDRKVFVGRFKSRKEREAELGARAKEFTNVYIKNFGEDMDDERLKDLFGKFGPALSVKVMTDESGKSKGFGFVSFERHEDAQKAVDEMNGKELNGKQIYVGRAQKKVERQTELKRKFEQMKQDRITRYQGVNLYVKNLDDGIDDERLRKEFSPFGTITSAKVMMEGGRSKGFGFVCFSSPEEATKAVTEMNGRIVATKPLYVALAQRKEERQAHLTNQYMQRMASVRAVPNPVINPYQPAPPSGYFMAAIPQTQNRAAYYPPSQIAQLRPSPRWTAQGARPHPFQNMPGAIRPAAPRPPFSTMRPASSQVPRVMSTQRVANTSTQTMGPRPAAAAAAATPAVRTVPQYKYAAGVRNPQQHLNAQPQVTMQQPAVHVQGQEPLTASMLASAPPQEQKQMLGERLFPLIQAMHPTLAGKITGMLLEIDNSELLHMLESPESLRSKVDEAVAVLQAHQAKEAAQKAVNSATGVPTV

B1: 5'Fluo-poly(A)75 (ssRNA)
RNA: AAAAAAAAAAAAAAAAAAAAAAAAAAAAAAAAAAAAAAAAAAAAAAAAAAAAAAAAAAAAAAAAAAAAAAAAAAA
In the case of B1, the binding result in the series with 6His-PABPC1(1-190) and with 6His-PABPC1(FL) was “binds” in each case.

B2: BTG2(APRO) (domain or fragment, human, UniProt P78543 1-126, looked up)
chain: MSHGKGTDMLPEIAAAVGFLSSLLRTRGCVSEQRLKVFSGALQEALTEHYKHHWFPEKPSKGSGYRCIRINHKMDPIISRVASQIGLSQPQLHQLLPSELTLWVDPYEVSYRIGEDGSICVLYEEA
notes: BTG2, human, APRO domain; also called BTG2 APRO domain, GST removed; source: E. coli BL21-CodonPlus, purified (GSTrap FF, thrombin cleavage, Superdex 75)
With B2, in the series with 6His-PABPC1(1–190), the equilibrium dissociation constant (Kd) was about 5 µM and the “stoichiometry N” value was 1.

As a reminder, the Kd is the free concentration of one partner at which half of the binding sites on the other are occupied at equilibrium, for simple one-to-one binding. Read a low Kd as a tighter complex. By stoichiometry N is commonly meant the number of molecules, sites or subunits per partner or assembly.
